Measured values from patent publication US20060034835A1 (Genentech, published 2006).

T1: human CD20 (human, UniProt P11836 1-297)
T1 construct: whole, on cells; also called CD20 antigen; Bp35
T1 sequence (looked up): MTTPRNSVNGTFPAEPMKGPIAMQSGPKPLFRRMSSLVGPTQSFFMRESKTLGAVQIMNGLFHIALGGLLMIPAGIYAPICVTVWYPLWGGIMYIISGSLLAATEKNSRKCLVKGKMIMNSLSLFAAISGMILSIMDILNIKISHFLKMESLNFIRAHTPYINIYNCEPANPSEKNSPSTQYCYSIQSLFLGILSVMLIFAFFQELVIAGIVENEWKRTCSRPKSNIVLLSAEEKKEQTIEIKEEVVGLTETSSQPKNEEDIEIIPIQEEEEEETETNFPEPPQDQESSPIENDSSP


Legend:
[1] = target: human CD20 (human) (UniProt P11836); test: cell-based or functional assay
[2] = target: T1, human CD20; test: cell-based ELISA on WIL2-S cells
Experimental: To measure relative binding affinities to the CD20 antigen, a cell-based ELISA assay was developed. […] The cells were washed with PBS containing 1% FBS (assay buffer) and seeded at 250-300,000 cell/well in 96-well round bottom plates (Nunc, Roskilde, Denmark). […] The plates were buried in ice and incubated for 45 min. To remove the unbound antibody, 0.1 mL assay buffer were added to the wells. Plates were centrifuged and supernatants were removed. Cells were washed two more times with 0.2 mL assay buffer. Antibody bound to the plates was detected by adding peroxidase conjugated goat anti-human Fc antibody (Jackson ImmunoResearch, West Grove, Pa.) to the plates. After a 45 min incubation, cells were washed as described before. TMB substrate (3,3′,5,5′-tetramethyl benzidine; Kirkegaard & Perry Laboratories, Gaithersburg, Md.) was added to the plates. The reaction was stopped by adding 1 M phosphoric acid. Titration curves were fit with a four-parameter nonlinear regression curve-fitting program (KaleidaGraph, Synergy software, Reading, Pa.). The absorbance at the midpoint of the titration curve (mid-OD) and its corresponding concentration of the standard were determined. Then the concentration of each variant at this mid-OD was determined, and the concentration of the standard was divided by that of each variant.

Molecule	ADCC: EC50(variant)/EC50(2H7.v16) [1]	ADCC: EC50(variant)/EC50(Rituxan) [1]	CDC: EC50(variant)/EC50(Rituxan) [1]	apoptosis of Ramos cells: fraction of Annexin V stained cells at 10 nM crosslinked antibody [1]	apoptosis of Ramos cells: fraction of doubly labeled cells at 10 nM crosslinked antibody [1]	apoptosis of Ramos cells: live cells counted per 10 s at 10 nM crosslinked antibody (cells per 10 s) [1]	Relative binding [2]
Rituxan (rituximab) (antibody)	5.3	1	1	16.5%	38%	3100	
2H7 version 166 (antibody, human IgG1, kappa, V domains shown, IgG1; Y100b is deleted (written as a substitution with an empty new residue)) VH: EVQLVESGGGLVQPGGSLRLSCAASGYTFTSYNMHWVRQAPGKGLEWVGAIYPGNGDTSYNQKFKGRFTISVDKSKNTLYLQMNSLRAEDTAVYYCARVVYYGGDWYFDVWGQGTLVTVSS VL: DIQMTQSPSSLSASVGDRVTITCRASSSVSYMHWYQQKPGKAPKPLIYAPSNLASGVPSRFSGSGSGTDFTLTISSLQPEDFATYYCQQWSFNPPTFGQGTKVEIKR							0.99 ratio to 2H7.v16
